Assay results taken from the nanobody polyreactivity screen of Harvey et al. (2022).

Experiment: yeast display, Sf9 membrane polyspecificity reagent, FACS + sequencing; frameworks hold sequencing errors
Summary of the method: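 Using colony PCR, genes from sorted yeast display clones were amplified, then sequenced on MiSeq at 2 × 250 and filtered by CDR length. The clones had been stained with 10% biotinylated, detergent-solubilized Sf9 membrane reagent for 1 hour at 4 °C and sorted by FACS into low and high (top ~1%) gates on anti-HA and streptavidin fluorescence. Polyreactivity labels come from the gate of origin.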

Row | Sequence | polyreactivity (PSR sort gate)
1 | QVQLVESGGGLVQAGGSLRLSCAASGSIFDVYGMGWYRQAPGKERELVARITSAGNTDYADSVKGRFTISRDNAKNTVYLQRNSLKPEDTAVYYCARDYVWFYGDTDFYYYLFDYWGQGTQVTVSS | low polyreactivity
2 | QVQLVESGGGLVQAGGSLRLSCAASGSIFDVYTMGWYRQAPGKERELVAAINTGGGSTYYADSVKGRFTISRDNAKNTVYLQMNSLKPEDTAVYFCAASVYHYGPLYYWGQGTQVTVSS | low polyreactivity
3 | QVQLVESGGGLVQAGGSLRLSCAASGSIFDWYAMGWYRQAPGKERELGAAITNSGGRTYYADSVKGRFTISRDTAKNTVYLQMNSLKPEDTAVYYCNASVFRLRKMYYWGQGTPVTVSS | high polyreactivity
4 | QVQLVESGGGLVQAGGSLRLSCAASGSIFDYKAMGWYRQAPGKERELVAAIDSSDTGTYYADSVKGRFTISRDNAKNTVYLQMNSLKPEDTAVYYCAAEYGWWEGSTTYLRYDYWGQGTQVTVSS | low polyreactivity
5 | QVQLVESGGGLVQAGGSLRLSCAASGSIFDYNAMGWYRQAPGKVRELVAAITGSGGSTYYADSVKGRFTISRDNAKNTVYLQMNSLTAEDTAVYYCAAPVDYRRYEYEYWGQGTQVTVSS | low polyreactivity
6 | QVQLVESGGGLVQAGGSLRLSCAASGSIFDYNGMGWYRQAPGKERELVATITLSTARTYYADSVKGRFTISRDNAKNTVYLQMNSLKPEDTAVYYCAATRLTPYIYGGKYNYWGQGTQVTVSS | high polyreactivity
7 | QVQLVESGGGLVQAGGSLRLSCAASGSIFDYNTMGWYRQAPGKEREFVAAISSSGGGTSYADSVKGRFTISRDNAKNTVYLQMNSLKPEDTAVYYCAALIKLTPYQRQYWKYRAYYYWGQGSQVTVSS | high polyreactivity
8 | QVQLVESGGGLVQAGGSLRLSCAASGSIFDYYAMGWDRQAPGKERELVAAISWSGGSTYYADSVKGRFTISRDNAKNTVYLHMNSLNPEDTAVYYCAADEYDYYHSRWYEYWGQGTQVTVSS | high polyreactivity
9 | QVQLVESGGGLVQAGGSLRLSCAASGSIFDYYAMGWYRQAPGKERELVAAIDNPDSTNYADSVKGRFTISRDNAKNTVYFQMNSLKPEDTAVYYCNADYWRYISSYDYWGQGTQVTVSS | low polyreactivity
10 | QVQLVESGGGLVQAGGSLRLSCAASGSIFDYYAMGWYRQAPGKERELVATITSGVSTYYADSVKGRFTISRDNAKNTVYLQMNSLKPEDTAVYYCARDYAKSQDLYKYDYWGQGTQVTVSS | low polyreactivity
11 | QVQLVESGGGLVQAGGSLRLSCAASGSIFDYYTMGWYRQAPGKERELVASITQSGGSTYYADSVKGRFTISRDNAKNTVYLQMNSLKPEDTAVYYCAADFSIVKMDYWGQGTQVTVSS | low polyreactivity
12 | QVQLVESGGGLVQAGGSLRLSCAASGSIFEANVMGWYRQAPGKERELVASISSDGTSTYYADSVKGRFTISRDNAKNTVYLQMNSLKPEDTAVYYCNADAGAGWYPDSKYDYDYWGQGTQVTVSS | low polyreactivity
13 | QVQLVESGGGLVQAGGSLRLSCAASGSIFEFNTMGWYRQAPGKERELVAAISSSGGRTYYADSVKGRFTISRDNAKNTVYLQMNSLKPEDTAVYYCNAVSYYGARYDYWGQGTQVTVSS | high polyreactivity
14 | QVQLVESGGGLVQAGGSLRLSCAASGSIFEGNGMGWYRQAPGKERELVAAITFRSGSTYYADSVKGRFTISRDNAKNTVYLLMNSLKPADTAVYYCAAHESYQVSAYDYWGQGSQVTVSS | low polyreactivity
15 | QVQLVESGGGLVQAGGSLRLSCAASGSIFEGNGMGWYRQAPGKERELVAAITFRSGSTYYADSVKGRFTISRDNAKNTVYLQMNSLKPEDTAVYYCAADEYYEVSAYDYWGQGTQVTVSS | low polyreactivity
16 | QVQLVESGGGLVQAGGSLRLSCAASGSIFEGYAMGWYRQAPGKERELVAAISRSGGSTYYADSVKGRFPISRDNAKNTVYLQMNSLKPEDTAVYYCAARKAIDYQGRHDHWGQGTQVTVSS | low polyreactivity
17 | QVQLVESGGGLVQAGGSLRLSCAASGSIFEGYAMGWYRQAPGKERELVARITSDDDSTYYADSVKGRFTISRDNAKNTVYLQMNSLKPEDTAVYYCNADYYCTSLAMDSWGQGTQVTVSS | low polyreactivity
18 | QVQLVESGGGLVQAGGSLRLSCAASGSIFEGYVMGWYRPAPGKVRELVAAISWSGGSTYYADSVKGRFTISRDNAKNTVYLQMNSLKPEDTAVYYCAAYGYDRYGRTRYNSWGQGTQVTVSS | high polyreactivity
19 | QVQLVESGGGLVQAGGSLRLSCAASGSIFEIYDMGWYRQAPGKERELVASIRTSGGSTYYAESVKGRFTISRDNAKNTVYLLMNSLKPEDTAVYYCATGWSWYHPDYDYWGQGTQVTVSS | low polyreactivity
20 | QVQLVESGGGLVQAGGSLRLSCAASGSIFELYAMGWYRQAPGKDRELVASITWSSSNTHYADSVKGRFTISRDNAKNTVYLQMNSMKPEDTAVYYCAKDVLYGQFDGDSWGQGNQVTVSS | low polyreactivity
21 | QVQLVESGGGLVQAGGSLRLSCAASGSIFELYAMGWYRQAPGKERELVAAISSTGGRTYYADSVKGRFTISRDNAKNTVYLQMNSLKPEDTAVYYCNKVWPRVHPWNYDYWGQGTQVTVSS | high polyreactivity
22 | QVQLVESGGGLVQAGGSLRLSCAASGSIFENYAMGCYRQAPGKERELVAAISSSGDSTYYADSVKGRFTISRDNAKNTVYLQMNSLKPEDTAVYYCAKGYRRVYGPFYYWGQVTQVTVSS | low polyreactivity

Row | Sequence | polyreactivity (PSR sort gate)
23 | QVQLVESGGGLVQAGGSLRLSCAASGSIFEQNAMGWYRQAPGKERELVAAITWSGDSTYYADSVKGRFTISRDNAKNTVYLQMNSLKPEDTAVYYCAKEFGGTKRYGWYNYWGQGTQVTVSS | low polyreactivity
24 | QVQLVESGGGLVQAGGSLRLSCAASGSIFERNAMGWYRQAPGKERELVAVITGSGGSTYYADSVKGRFTISRDNAKNTVYLQMNSLKPEDTAVYYCAAPVHTASGRWVPGYYYWGQGTQVTVSS | high polyreactivity
25 | QVQLVESGGGLVQAGGSLRLSCAASGSIFERYAMGWYRQAPGKERELVAAITWTGGSTYYADSVKGRFTISRDNAQNTVYLQMNSLKPEDTAVYYCAADYLYPLWGWYDYWGQGTQVTVSS | low polyreactivity
26 | QVQLVESGGGLVQAGGSLRLSCAASGSIFESNAMGWYRQAPGKERELVADITYRGTRTYYADSVKGRFTISRDNAKNTVYLQMNSLKPEDTAVYYCAVWQDHYDWGQGTQVTVSS | low polyreactivity
27 | QVQLVESGGGLVQAGGSLRLSCAASGSIFESYAMGWYRQAPGKEREFVAAISDSGADTYYADSVKGRFTISRDNAKNTVYLQMNSLKPEDTAVYYCNADKEFAVLGQGMDYWGQGTQVTVSS | low polyreactivity
28 | QVQLVESGGGLVQAGGSLRLSCAASGSIFESYAMGWYRQAPGKERELVAAIDSGDSTYYADSVKGRFTISRDNAKNTVYLQMNSLKPEDTAVYYCAAGYLFLKRIWQSRMDYWGQGTQVTVSS | low polyreactivity
29 | QVQLVESGGGLVQAGGSLRLSCAASGSIFESYAMGWYRQAPGKERELVAAITKRGGSTYYADSVKGRFTISRDNAKYTVYLQMNSLKPEDTAVYYCNARWPGIGPIYDYWGQGSQVTVSS | low polyreactivity
30 | QVQLVESGGGLVQAGGSLRLSCAASGSIFESYAMGWYRQAPGKERELVAAITSSGDSTYYADSVKGRFTISRDNAKNTVYLQMNSLKPEDTAVDYCAKRVPTYISTADWGSRYDYWGQGTQVTVSS | low polyreactivity
31 | QVQLVESGGGLVQAGGSLRLSCAASGSIFEVNAMGWYTQAPGKERELVATITYSGGSTYYADSVKGRFTISRDNAKNTVYLQMNSLKPEDTAVYYCATDYVDWELYIYDYWGQGTQVTVSS | low polyreactivity
32 | QVQLVESGGGLVQAGGSLRLSCAASGSIFEWYAMGWYRQAPGKERELVAAINSGGSTYYADSVQGRFTISRDNAKNTVYLQMNSLKPEDTAVYYCNYDTLLQDRLGDWYDYDYWGQGTQVTVSS | low polyreactivity
33 | QVQLVESGGGLVQAGGSLRLSCAASGSIFEWYAMGWYRQEPGKERELVADITYNGGSTYYADSVKGRFTISRDNAKNTVYLQMNSLKPEDSAVYYCNKDIERYVSIYDSWGQGTQVTVSS | low polyreactivity
34 | QVQLVESGGGLVQAGGSLRLSCAASGSIFEYYAMGWYREAPGKERELVAAITSSGASTYYADSVKGHFTISRDNAKNSVYLQMNSLKPEDTAVYYCAKEVIRYSQYIFDYWGQGTQVTVSS | low polyreactivity
35 | QVQLVESGGGLVQAGGSLRLSCAASGSIFEYYAMGWYRQAPGKERELVASITSGGRTYYADSVKGRFTISRDNAKNTVYLQMNSLKPEDTAVYYCAAAYYNWGYTFYWGQGTQVTVSS | high polyreactivity
36 | QVQLVESGGGLVQAGGSLRLSCAASGSIFEYYTMGWYRQAPGKEREFVAAITFTGDSTYYADSVKGRFTISRDNAKNTVYLQMNSLKPEDTAVYYCNADSVTYDGEYDYWGQGTQVTVSS | low polyreactivity
37 | QVQLVESGGGLVQAGGSLRLSCAASGSIFEYYVMGWYRQAPGKERELVAAISYSGDSTYYADSVKGRFTISRDNAKNTVYLQMNSLKPEDTAVYYCAAQYTRVIPPGYDYWGQGTQVTVSS | high polyreactivity
38 | QVQLVESGGGLVQAGGSLRLSCAASGSIFFDGNAMGWYRQAPGKERELVAAISVSGGSTYYADSVKGRFTISRDNAKNTVYLQMNSLKPEDTAVYYCAKYPSKSFVPGDYWGQGTQVTVSS | low polyreactivity
39 | QVQLVESGGGLVQAGGSLRLSCAASGSIFFEYAMGWYRQATGKERELVAAISRRGGSTYYADSVKGRFTISRDNAKNTVYVQMNSLKPEDTAVYYCNKVNRASRGDYDYWGQGTQVTVSS | high polyreactivity
40 | QVQLVESGGGLVQAGGSLRLSCAASGSIFFFYALGWYRQAPGNERELVAAISKSPSSTYYADSVKGRFTISRDNAKKTVYVQMNSLKPEDTAVYYCNTGYSGIQYYYWGQGTQVTVSS | low polyreactivity
41 | QVQLVESGGGLVQAGGSLRLSCAASGSIFFINAMGWYRQAPGKERELVADITSGGGTYYADSVKGRFTISRDNAKNTVYLQMNSLKPVDTAVYYCAKEYGFTGYGYWGQCTQVTVSS | low polyreactivity
42 | QVQLVESGGGLVQAGGSLRLSCAASGSIFFKYTLGWYRQAPGKERELVAAISYSGGRTYYADSVKGRFTISRDTAKNTVYLQMNSLKPEDTAVYDGATRDEITHGDRMDYWGQGTQVTVSS | low polyreactivity
43 | QVQLVESGGGLVQAGGSLRLSCAASGSIFFKYTMGWYRQAPGKERELVAAITYTGGRTYYADSVKGRFTISRDNAKNTVYLQMNSLKPEDTAVYFCNKVTPRQGNRLAGVSGYDYWGQGTQVTVSS | high polyreactivity
